Assay results taken from FireProtDB (doi:10.1021/bi052091o).
Where “and” joins values, the source holds several entries; their conditions need not be identical. Identical values can stand only once.

Settings: Rattus norvegicus; pH 7; 25 °C; Urea; Fluorescence; NaPO4 25 mM; NaCl 75 mM; whole UniProt chain shown

B1: Fatty acid-binding protein, intestinal wild type, P02693 (protein)
chain: MAFDGTWKVDRNENYEKFMEKMGINVVKRKLGAHDNLKLTITQEGNKFTVKESSNFRNIDVVFELGVDFAYSLADGTELTGTWTMEGNKLVGKFKRVDNGKELIAVREISGNELIQTYTYEGVEAKRIFKKE
denaturant m value: 0.83 kcal/mol/M and 0.74 kcal/mol/M | denaturant midpoint (higher = more stable): 4.61 M and 4.77 M | unfolding free energy: 3.82 kcal/mol and 3.54 kcal/mol
